In IntAct's records for PubMed 22773792:

B1: Stage VI sporulation protein D (Bacillus subtilis), P37963 (parent)
chain: MPQNHRLQFSVEESICFQKGQEVSELLSISLDPDIRVQEVNDYVSIIGSLELTGEYNIDQNKHTEEIYTDKRFVEQVRKREDGSAELTHCFPVDITIPKNKVSHLQDVFVFIDAFDYQLTDSRILTIQADLAIEGLLDDTQDKEPEIPLYEAPAAFREEELSEPPAHSVVEEPGASSAEEAVLQHEPPAEPPELFISKAGLREELETEKAESEPPESVASEPEAREDVKEEEESEELAVPETEVRAESETEESEPEPDPSEIEIQEIVKAKKETAEPAAAIADVREEADSPAETELREHVGAEESPALEAELHSETVIAKEKEETTVSPNHEYALRQEAQNEEAAQSDQADPALCQEEAEPDEALESVSEAALSIEDSRETASAVYMENDNADLHFHFNQKTSSEEASQEELPEPAYRTFLPEQEEEDSFYSAPKLLEEEEQEEESFEIEVRKTPSAEEPKEETPFQSFQLPESSETERKETDAVPRVAPAAETKEPQTKESDNSLYLTKLFTKEADEFSRMKICIVQQEDTIERLCERYEITSQQLIRMNSLALDDELKAGQILYIPQYKNSHA
partner: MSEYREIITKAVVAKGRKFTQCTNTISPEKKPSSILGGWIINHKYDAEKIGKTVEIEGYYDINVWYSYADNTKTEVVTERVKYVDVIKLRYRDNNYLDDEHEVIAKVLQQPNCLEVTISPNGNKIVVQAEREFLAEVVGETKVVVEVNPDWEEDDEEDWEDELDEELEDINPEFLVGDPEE

Variants of: B1
Conditions: with cote_bacsu cotE

| effect of a mutation on the interaction | Variant |
| --- | --- |
| disrupting interaction | MPQNHRLQFSVEESICFQKGQEVSELLSISLDPDIRVQEVNDYVSIIGSLELTGEYNIDQNKHTEEIYTDKRFVEQVRKREDGSAELTHCFPVDITIPKNKVSHLQDVFVFIDAFDYQLTDSRILTIQADAAIEGLLDDTQDKEPEIPLYEAPAAFREEELSEPPAHSVVEEPGASSAEEAVLQHEPPAEPPELFISKAGLREELETEKAESEPPESVASEPEAREDVKEEEESEELAVPETEVRAESETEESEPEPDPSEIEIQEIVKAKKETAEPAAAIADVREEADSPAETELREHVGAEESPALEAELHSETVIAKEKEETTVSPNHEYALRQEAQNEEAAQSDQADPALCQEEAEPDEALESVSEAALSIEDSRETASAVYMENDNADLHFHFNQKTSSEEASQEELPEPAYRTFLPEQEEEDSFYSAPKLLEEEEQEEESFEIEVRKTPSAEEPKEETPFQSFQLPESSETERKETDAVPRVAPAAETKEPQTKESDNSLYLTKLFTKEADEFSRMKICIVQQEDTIERLCERYEITSQQLIRMNSLALDDELKAGQILYIPQYKNSHA [L131A] |

Variants of: B1
Conditions: with cote_bacsu cotE
Remark: another data set of the same source

| effect of a mutation on the interaction | Variant |
| --- | --- |
| decreasing interaction strength | MPQNHRLQFSVEESICFQKGQEVSELLSISLDPDIRVQEVNDYVSIIGSLELTGEYNIDQNKHTEEIYTDKRFVEQVRKREDGSAELTHCFPVDITIPKNKVSHLQDVFVFIDAFDYQLTDSRILTIQADAAIEGLLDDTQDKEPEIPLYEAPAAFREEELSEPPAHSVVEEPGASSAEEAVLQHEPPAEPPELFISKAGLREELETEKAESEPPESVASEPEAREDVKEEEESEELAVPETEVRAESETEESEPEPDPSEIEIQEIVKAKKETAEPAAAIADVREEADSPAETELREHVGAEESPALEAELHSETVIAKEKEETTVSPNHEYALRQEAQNEEAAQSDQADPALCQEEAEPDEALESVSEAALSIEDSRETASAVYMENDNADLHFHFNQKTSSEEASQEELPEPAYRTFLPEQEEEDSFYSAPKLLEEEEQEEESFEIEVRKTPSAEEPKEETPFQSFQLPESSETERKETDAVPRVAPAAETKEPQTKESDNSLYLTKLFTKEADEFSRMKICIVQQEDTIERLCERYEITSQQLIRMNSLALDDELKAGQILYIPQYKNSHA [L131A] |
| decreasing interaction strength | MPQNHRLQFSVEESICFQKGQEVSELLSISLDPDIRVQEVNDYVSIIGSLELTGEYNIDQNKHTEEIYTDKRFVEQVRKREDGSAELTHCFPVDITIPKNKVSHLQDVFVFIDAFDYQLTDSRILTAQADLAIEGLLDDTQDKEPEIPLYEAPAAFREEELSEPPAHSVVEEPGASSAEEAVLQHEPPAEPPELFISKAGLREELETEKAESEPPESVASEPEAREDVKEEEESEELAVPETEVRAESETEESEPEPDPSEIEIQEIVKAKKETAEPAAAIADVREEADSPAETELREHVGAEESPALEAELHSETVIAKEKEETTVSPNHEYALRQEAQNEEAAQSDQADPALCQEEAEPDEALESVSEAALSIEDSRETASAVYMENDNADLHFHFNQKTSSEEASQEELPEPAYRTFLPEQEEEDSFYSAPKLLEEEEQEEESFEIEVRKTPSAEEPKEETPFQSFQLPESSETERKETDAVPRVAPAAETKEPQTKESDNSLYLTKLFTKEADEFSRMKICIVQQEDTIERLCERYEITSQQLIRMNSLALDDELKAGQILYIPQYKNSHA [I127A] |
